Measured values: patent publication US20230416364A1

B1: GS_hCD25.b (protein, part only; not given: Fusion partner and linker, part only)
chain, part: ELCDDDPPEIPHATFKAMAYKEGTMLNCECKRGFRRIKSGSLYMLCTGNSSHSSWDNQCQCTSSATRNTTKQVTPQPEEQKERKTTEMQSPMQPVDQASLPGHCREPPPWENEATERIYHFVVGQMVYYQCVQGYRALHRGPAESVCKMTHGKTRWTQPQLICTGEMETSQFPGEEKPQASPEGRPESETSCLVTTTDFQIQ
B2: GS_hCD25.d (protein, part only; not given: Fusion partner and linker, part only)
chain, part: ELCDDDPPEIPHATFKAMAYKEGTMLNCECKRGFRRIKSGSLYMLCTGNSSHSSWDNQCQCTSSATRNTTKQVTPQPEEQKERKTTEMQSPMQPVDQASLPGHCREPPPWENEATERIYHFVVGQMVYYQCVQGYRALHRGPAESVCKMTHGKTRWTQPQLICTG

Molecular target: human IL-2 (Miltenyi) (human) (UniProt P60568)
Assay: SPR

human IL-2 (Miltenyi) (human), sequence (P60568 21-153 limits assumed): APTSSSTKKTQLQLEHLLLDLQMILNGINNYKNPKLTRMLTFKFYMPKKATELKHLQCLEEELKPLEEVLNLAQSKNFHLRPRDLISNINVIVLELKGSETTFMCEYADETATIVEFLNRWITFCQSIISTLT

Binder | Kd | kon | koff
B1 | 12 nM | 1.1e+07 M⁻¹ s⁻¹ | –
B2 | 12 nM | 5.4e+06 M⁻¹ s⁻¹ | 0.063 s⁻¹
